According to patent US20140363428A1 (Chugai, published 2014):
Positions count from the first letter of the chain named. One block for each binder: values may come before it.

Target: T1, soluble human FcRn (human, UniProt P55899 24-297; P61769 21-119)
T1 construct: Heterodimer of FcRn alpha chain and beta2-microglobulin; also called hFcRn
Assay: SPR (Biacore T100), antibody captured by protein L, hFcRn as analyte, pH 7.0, 25 C;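 also: KD calculated from fitted association and dissociation rate constants of the sensorgrams, protein L amine-coupled to the sensor chip, sodium phosphate running buffer with NaCl and Tween20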
Description: An appropriate amount of protein L (ACTIGEN) was immobilized onto Sensor chip CM4 (GE Healthcare) by the amino coupling method, and the chip was allowed to capture an antibody of interest. Then, diluted FcRn solutions and running buffer (as a reference solution) were injected to allow human FcRn to interact with the antibody captured on the sensor chip. The running buffer used comprised 50 mmol/l sodium phosphate, 150 mmol/l NaCl, and 0.05% (w/v) Tween20 (pH 7.0). FcRn was diluted using each buffer. The chip was regenerated using 10 mmol/l glycine-HCl (pH 1.5). Assays were carried out exclusively at 25 degrees C. The association rate constant ka (1/Ms) and dissociation rate constant kd (1/s), both of which are kinetic parameters, were calculated based on the sensorgrams obtained in the assays, and KD (M) of each antibody for human FcRn was determined from these values. Each parameter was calculated using Biacore T100 Evaluation Software (GE Healthcare).

B1: IgG1-F1262 (antibody)
heavy: QVQLQESGPGLVKPSETLSLTCAVSGHSISHDHAWSWVRQPPGEGLEWIGFISYSGITNYNPSLQGRVTISRDNSKNTLYLQMNSLRAEDTAVYYCARSLARTTAMDYWGEGTLVTVSSASTKGPSVFPLAPSSKSTSGGTAALGCLVKDYFPEPVTVSWNSGALTSGVHTFPAVLQSSGLYSLSSVVTVPSSSLGTQTYICNVNHKPSNTKVDKKVEPKSCDKTHTCPPCPAPELRGGPKVFLFPPKPKDTLYISRTPEVTCVVVDVSHEDPEVKFNWYVDGVEVHNAKTKPREEQYNSTYRVVSVLTVLHQDWLNGKEYKCKVSNKALPAPIEKTISKAKGQPREPQVYTLPPSRDELTKNQVSLTCLVKGFYPSDIAVEWESNGQPENNYKTTPPVLDSDGSFFLYSKLTVDKSRWQQGNVFSCSVMHEALHYHVTKKELSLSP
light: not shown
notes: EU numbering; copies: 2 + 2
Kd: 130 nM

B4: IgG1-F1270 (antibody)
heavy: B1 heavy with S256A, E442D
light: not shown
notes: EU numbering; copies: 2 + 2
Kd: 120 nM

B7: IgG1-F1160 (antibody)
heavy: B1 heavy with R237L, K241S, Y254M, V310F, S426N, V438Y, K440Q, E442S
light: not shown
notes: EU numbering; copies: 2 + 2
Kd: 290 nM

B9: IgG1-F1261 (antibody)
heavy: B1 heavy with K440R, E442D
light: not shown
notes: EU numbering; copies: 2 + 2
Kd: 140 nM

B10: IgG1-F1216 (antibody)
heavy: B1 heavy with R237L, K241S, L253S, K440Q, E442S
light: not shown
notes: EU numbering; copies: 2 + 2
Kd: 1200 nM

B14: IgG1-F1200 (antibody)
heavy: B1 heavy with R237L, K241S, T252V, S256T, K440R
light: not shown
notes: EU numbering; copies: 2 + 2
Kd: 130 nM

B16: IgG1-F1192 (antibody)
heavy: B1 heavy with R237L, K241S, T439G, K440R
light: not shown
notes: EU numbering; copies: 2 + 2
Kd: 130 nM

B18: IgG1-F1255 (antibody)
heavy: B1 heavy with Q313A, K440R
light: not shown
notes: EU numbering; copies: 2 + 2
Kd: 110 nM

B19: IgG1-F1260 (antibody)
heavy: B1 heavy with T309Q, Q313H, K440R
light: not shown
notes: EU numbering; copies: 2 + 2
Kd: 65 nM

B20: IgG1-F1218 (antibody)
heavy: B1 heavy with R237L, K241S, L253V, K440Q, E442S
light: not shown
notes: EU numbering; copies: 2 + 2
Kd: 250 nM

B23: IgG1-F1229 (antibody)
heavy: B1 heavy with R237L, K241S, I255V, K440Q, E442S
light: not shown
notes: EU numbering; copies: 2 + 2
Kd: 2800 nM

B24: IgG1-F1162 (antibody)
heavy: B1 heavy with R237L, P240D, K241S, T252Y, K440Q, E442S
light: not shown
notes: EU numbering; copies: 2 + 2
Kd: 340 nM

B26: IgG1-F1185 (antibody)
heavy: B1 heavy with R237L, K241S, Y254M, T309A, E382A, M430L, Y436S, V438Y, K440Q, E442S
light: not shown
notes: EU numbering; copies: 2 + 2
Kd: 920 nM

B27: IgG1-F1266 (antibody)
heavy: B1 heavy with T258N, K440R
light: not shown
notes: EU numbering; copies: 2 + 2
Kd: 100 nM

B28: IgG1-F1264 (antibody)
heavy: B1 heavy with T258A, K440R
light: not shown
notes: EU numbering; copies: 2 + 2
Kd: 130 nM

B29: IgG1-F1259 (antibody)
heavy: B1 heavy with T309Q, Q313A, K440R
light: not shown
notes: EU numbering; copies: 2 + 2
Kd: 45 nM

B31: IgG1-F1256 (antibody)
heavy: B1 heavy with Q313H, K440R
light: not shown
notes: EU numbering; copies: 2 + 2
Kd: 160 nM

B32: IgG1-F1188 (antibody)
heavy: B1 heavy with R237L, K241S, Y254M, T309A, E382A, Y436H, V438Y, K440Q, E442S
light: not shown
notes: EU numbering; copies: 2 + 2
Kd: 1700 nM

B33: IgG1-F1269 (antibody)
heavy: B1 heavy with H435D, E442D
light: not shown
notes: EU numbering; copies: 2 + 2
Kd: 170 nM

B35: IgG1-F1183 (antibody)
heavy: B1 heavy with R237L, K241S, Y254M, E382A, M430L, Y436S, V438Y, K440Q, E442S
light: not shown
notes: EU numbering; copies: 2 + 2
Kd: 1300 nM

B37: IgG1-F1195 (antibody)
heavy: B1 heavy with R237L, K241S, K440R, L443A
light: not shown
notes: EU numbering; copies: 2 + 2
Kd: 180 nM

B38: IgG1-F1191 (antibody)
heavy: B1 heavy with R237L, K241S, T439A, K440R
light: not shown
notes: EU numbering; copies: 2 + 2
Kd: 210 nM

B39: IgG1-F1178 (antibody)
heavy: B1 heavy with R237L, K241S, Y254M, V261I, V310F, M430L, Y436N, V438Y, K440Q, E442S
light: not shown
notes: EU numbering; copies: 2 + 2
Kd: 870 nM

B40: IgG1-F1205 (antibody)
heavy: B1 heavy with R237L, K241S, T252V, T258Q, K440R
light: not shown
notes: EU numbering; copies: 2 + 2
Kd: 200 nM

B41: IgG1-F1202 (antibody)
heavy: B1 heavy with R237L, K241S, T252V, S256T, T258E, K440R
light: not shown
notes: EU numbering; copies: 2 + 2
Kd: 88 nM

B42: IgG1-F1232 (antibody)
heavy: B1 heavy with R237L, K241S, E442D
light: not shown
notes: EU numbering; copies: 2 + 2
Kd: 98 nM

B43: IgG1-F1204 (antibody)
heavy: B1 heavy with R237L, K241S, S256T, T258Q, K440R
light: not shown
notes: EU numbering; copies: 2 + 2
Kd: 120 nM

B44: IgG1-F1189 (antibody)
heavy: B1 heavy with R237L, K241S, H435D, K440R
light: not shown
notes: EU numbering; copies: 2 + 2
Kd: 160 nM

B45: IgG1-F1207 (antibody)
heavy: B1 heavy with R237L, K241S, Y254M, I334E, M430L, Y436S, V438Y, K440Q, E442S
light: not shown
notes: EU numbering; copies: 2 + 2
Kd: 1100 nM

B46: IgG1-F1263 (antibody)
heavy: B1 heavy with E442D
light: not shown
notes: EU numbering; copies: 2 + 2
Kd: 120 nM

B50: IgG1-F1161 (antibody)
heavy: B1 heavy with R237L, K241S, Y254M, I334V, S426N, V438Y, K440Q, E442S
light: not shown
notes: EU numbering; copies: 2 + 2
Kd: 1100 nM

B51: IgG1-F1251 (antibody)
heavy: B1 heavy with T252V, T258Q, K440R
light: not shown
notes: EU numbering; copies: 2 + 2
Kd: 280 nM

B53: IgG1-F1244 (antibody)
heavy: B1 heavy with T258E, K440R
light: not shown
notes: EU numbering; copies: 2 + 2
Kd: 100 nM

B56: IgG1-F1165 (antibody)
heavy: B1 heavy with R237L, P240D, K241S, T252Y, T309Q, V310P, Q313A, K440Q, E442S
light: not shown
notes: EU numbering; copies: 2 + 2
Kd: 16 nM

B57: IgG1-F1247 (antibody)
heavy: B1 heavy with T252V, T258E, K440R
light: not shown
notes: EU numbering; copies: 2 + 2
Kd: 150 nM

B58: IgG1-F1265 (antibody)
heavy: B1 heavy with T258G, K440R
light: not shown
notes: EU numbering; copies: 2 + 2
Kd: 160 nM

B59: IgG1-F1206 (antibody)
heavy: B1 heavy with R237L, K241S, T252V, S256T, T258Q, K440R
light: not shown
notes: EU numbering; copies: 2 + 2
Kd: 170 nM

B60: IgG1-F1231 (antibody)
heavy: B1 heavy with R237L, K241S
light: not shown
notes: EU numbering; copies: 2 + 2
Kd: 97 nM

The next lines start with the values.

Kd: 1100 nM
B2: IgG1-F1217 (antibody)
heavy: B1 heavy with R237L, K241S, L253T, K440Q, E442S
light: not shown
notes: EU numbering; copies: 2 + 2

Kd: 150 nM
B3: IgG1-F1203 (antibody)
heavy: B1 heavy with R237L, K241S, T258Q, K440R
light: not shown
notes: EU numbering; copies: 2 + 2

Kd: 78 nM
B5: IgG1-F1198 (antibody)
heavy: B1 heavy with R237L, K241S, T258E, K440R
light: not shown
notes: EU numbering; copies: 2 + 2

Kd: 70 nM
B6: IgG1-F1164 (antibody)
heavy: B1 heavy with R237L, P240D, K241S, T252Y, T309Q, Q313A, K440Q, E442S
light: not shown
notes: EU numbering; copies: 2 + 2

Kd: 170 nM
B8: IgG1-F1250 (antibody)
heavy: B1 heavy with S256T, T258Q, K440R
light: not shown
notes: EU numbering; copies: 2 + 2

Kd: 170 nM
B11: IgG1-F1246 (antibody)
heavy: B1 heavy with T252V, S256T, K440R
light: not shown
notes: EU numbering; copies: 2 + 2

Kd: 150 nM
B12: IgG1-F1163 (antibody)
heavy: B1 heavy with R237L, P240D, K241S, T252Y, T309Q, Q313A, V438Y, K440Q, E442S
light: not shown
notes: EU numbering; copies: 2 + 2

Kd: 570 nM
B13: IgG1-F1208 (antibody)
heavy: B1 heavy with R237L, K241S, L253A, K440Q, E442S
light: not shown
notes: EU numbering; copies: 2 + 2

Kd: 110 nM
B15: IgG1-F1201 (antibody)
heavy: B1 heavy with R237L, K241S, T252V, T258E, K440R
light: not shown
notes: EU numbering; copies: 2 + 2

Kd: 150 nM
B17: IgG1-F1196 (antibody)
heavy: B1 heavy with R237L, K241S, K440R, L443E
light: not shown
notes: EU numbering; copies: 2 + 2

Kd: 110 nM
B21: IgG1-F1258 (antibody)
heavy: B1 heavy with T309A, Q313H, K440R
light: not shown
notes: EU numbering; copies: 2 + 2

Kd: 78 nM
B22: IgG1-F1257 (antibody)
heavy: B1 heavy with T309A, Q313A, K440R
light: not shown
notes: EU numbering; copies: 2 + 2

Kd: 64 nM
B25: IgG1-F1254 (antibody)
heavy: B1 heavy with T309Q, K440R
light: not shown
notes: EU numbering; copies: 2 + 2

Kd: 95 nM
B30: IgG1-F1197 (antibody)
heavy: B1 heavy with R237L, K241S, S256T, K440R
light: not shown
notes: EU numbering; copies: 2 + 2

Kd: 130 nM
B34: IgG1-F1243 (antibody)
heavy: B1 heavy with S256T, K440R
light: not shown
notes: EU numbering; copies: 2 + 2

Kd: 110 nM
B36: IgG1-F1230 (antibody)
heavy: B1 heavy with R237L, K241S, K440R, E442D
light: not shown
notes: EU numbering; copies: 2 + 2

Kd: 210 nM
B47: IgG1-F1249 (antibody)
heavy: B1 heavy with T258Q, K440R
light: not shown
notes: EU numbering; copies: 2 + 2

Kd: 62 nM
B48: IgG1-F1199 (antibody)
heavy: B1 heavy with R237L, K241S, S256T, T258E, K440R
light: not shown
notes: EU numbering; copies: 2 + 2

Kd: 1200 nM
B49: IgG1-F1211 (antibody)
heavy: B1 heavy with R237L, K241S, L253H, K440Q, E442S
light: not shown
notes: EU numbering; copies: 2 + 2

Kd: 230 nM
B52: IgG1-F1252 (antibody)
heavy: B1 heavy with T252V, S256T, T258Q, K440R
light: not shown
notes: EU numbering; copies: 2 + 2

Kd: 110 nM
B54: IgG1-F1253 (antibody)
heavy: B1 heavy with T309A, K440R
light: not shown
notes: EU numbering; copies: 2 + 2

Kd: 160 nM
B55: IgG1-F1194 (antibody)
heavy: B1 heavy with R237L, K241S, K440R, K441D
light: not shown
notes: EU numbering; copies: 2 + 2
